# According to doi:10.1101/2022.05.24.493195 (bioRxiv, 2022):
# B1: Human cyclin B1, residues 165-433 carrying the C167S/C238S/C350S mutations (domain or fragment)
# chain: NLSSEYVKDIYAYLRQLEEEQAVRPKYLLGREVTGNMRAILIDWLVQVQMKFRLLQETMYMTVSIIDRFMQNNSVPKKMLQLVGVTAMFIASKYEEMYPPEIGDFAFVTDNTYTKHQIRQMEMKILRALNFGLGRPLPLHFLRRASKIGEVDVEQHTLAKYLMELTMLDYDMVHFPPSQIAAGAFSLALKILDNGEWTPTLQHYLSYTEESLLPVMQHLAKNVVMVNQGLTKHMTVKNKYATSKHAKISTLPQLNSALVQDLAKAVAKV
# Molecular target: T161 phosphorylated CDK1 (full-length human CDK1) (human, UniProt P06493 1-297, phosphothreonine at T161)
# Experiment: SEC
binder,measurement,value
B1,binding result,binds
